# Data published in patent publication US20060094649A1 (published 2006).
# Non-standard residues stand in square brackets, D forms with d. No end group written: not given here. Abu = CC[C@H](N)C(=O)O
# Assays:
# HLA-B*1801 = HLA-B*1801 (human); experiment: competition with labeled probe peptide, purified HLA class I
# HLA-B*4403 [1] = target: HLA-B*4403 (human); experiment: as above
# HLA-A*3101 = HLA-A*3101 (human); experiment: competition vs 125I probe, purified HLA
# HLA-B*4403 [2] = target: HLA-B*4403 (human); experiment: competition vs labelled reference peptide on HLA class I
# HLA-B*4501 = HLA-B*4501 (human); experiment: as above
# HLA-A*3301 = HLA-A*3301 (human); experiment: competition vs 125I probe, purified HLA
# HLA-B*4403 [3] = target: HLA-B*4403 (human); experiment: competitive inhibition of labeled probe peptide, purified HLA
binder,measurement,setting,value
"LESEFQAAL [LESEFQAAL (MAGE3, position printed 301)]",IC50,HLA-B*1801,5.4 nM
"PEEGLEARGEA [PEEGLEARGEA (MAGE2, position 12)]",IC50,HLA-B*4403 [1],950 nM
SV[Abu]MGGMNK [p53.240.V2B3K9],IC50,HLA-A*3101,9000 nM
"GEGLACHQLCA [GEGLACHQLCA (Her2/neu position 506, 11-mer)]",IC50,HLA-B*4403 [2],2.7 nM
"EEGACQPCPI [EEGACQPCPI (Her2/neu position 619, 10-mer)]",IC50,HLA-B*4501,401 nM
[Abu]VYSPALNR [p53.124.B1V2R9],IC50,HLA-A*3301,85 nM
SEYLQLVFGIEVV [MAGE2 155 SEYLQLVFGIEVV],IC50,HLA-B*4403 [3],7.6 nM
SS[Abu]MGGMNRK [p53.240.B3K10],IC50,HLA-A*3101,720 nM
